Experimental data from patent US20240294622A1 (SUZHOU TRANSCENTA THERAPEUTICS, published 2024).

Legend:
HGREM1-His (ACRO) [1] = target: T1, HGREM1-His (ACRO) (human, UniProt O60565 25-184); experiment: blocking ELISA, Human Gremlin-1 binding to BMP7; column Percentage
T1 construct: Lys25-Asp184 of NP_037504 with C-terminal polyhistidine tag (ACRO GR1-H52H3); they are put here; also called hGREM1 (ACRO); human gremlin (ACRO)
T1 sequence: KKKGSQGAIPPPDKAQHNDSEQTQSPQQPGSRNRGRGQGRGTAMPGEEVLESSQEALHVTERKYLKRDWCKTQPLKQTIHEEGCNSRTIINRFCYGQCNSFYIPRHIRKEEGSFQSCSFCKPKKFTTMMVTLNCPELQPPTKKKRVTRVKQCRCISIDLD
Experimental: (§1) In addition, the ability of serial dilutions of antibodies provided herein to block Gremlin binding to human BMP2/4/7 was also examined via ELISA. Plates were coated with recombinant human BMP2/4/7 (0.5 μg/ml) overnight and then serial dilutions of antibodies were incubated with 1 μg/ml of human Gremlin-his modified for 1 h at RT before this complex was added to coated plates and allowed to incubate for an additional hour at RT. The plates were then washed and added with anti-his HRP (GenScript). Plates were then developed with a TMB solution and stopped by adding stop solution. The plates were read on a plate reader at 450 nm. […] The chimeric anti-gremlin 1 antibodies (69H5-chi) and chimeric anti-gremlin 1 antibodies (22F1-chi) also can inhibit the binding of gremlin to BMP2 and BMP4 (see, FIG. 3E and FIG. 3F). The chimeric anti-gremlin 1 antibodies (56C11-chi) can inhibit the binding of gremlin to BMP2 (see, FIG. 3E).

HGREM1-His (ACRO) [2] = target: T1, HGREM1-His (ACRO); experiment: blocking ELISA, Human Gremlin-1 binding to BMP4; column OD450
Experimental: as §1

HGREM1-His (ACRO) [3] = target: T1, HGREM1-His (ACRO); experiment: blocking ELISA, Human Gremlin-1 binding to FGFR1
Experimental: Next, 0.25 μg/ml of gremlin was selected to test the blocking activity. The ability of antibodies to block Gremlin binding to human FGFR1-Fc was examined via ELISA. Plates were coated with recombinant FGFR1-Fc (2 μg/ml) overnight and then serial dilutions of antibodies were incubated with 0.25 μg/ml of human Gremlin-his modified for 1 h at RT before this complex was added to coated plates and allowed to incubate for an additional hour at RT. The plates were then washed and added with anti-his HRP (GenScript). Plates were then developed with a TMB solution and stopped by adding stop solution. The plates were read on a plate reader at 450 nm. […] Humanized anti-GREM1 antibodies provided herein (e.g., Hu14E3, Hu22F1) are expected to show the similar technical effect as their chimeric counterparts in blocking the binding of hGREM1 to FGFR1.

HGREM1-His (ACRO) [4] = target: T1, HGREM1-His (ACRO); experiment: ELISA, coated hGREM1 (ACRO)
HGREM1-His (ACRO) [5] = target: T1, HGREM1-His (ACRO); experiment: blocking ELISA, Human Gremlin-1 binding to BMP2; column OD450
Experimental: as §1

human gremlin-2 (R&D) = target: T2, human gremlin-2 (R&D) (human, UniProt Q9H772 22-168, limits assumed); experiment: ELISA on coated human gremlin-2 (R&D, 0.5ug/ml), anti-mouse IgG-HRP
T2 construct: also called GREM2
T2 sequence (looked up): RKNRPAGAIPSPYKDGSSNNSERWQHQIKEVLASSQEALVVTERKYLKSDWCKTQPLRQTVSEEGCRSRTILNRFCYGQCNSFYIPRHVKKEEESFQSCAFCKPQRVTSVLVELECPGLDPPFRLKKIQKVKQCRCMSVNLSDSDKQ
Experimental: (§2) In addition, the specificity of the binding of 14E3 and a benchmark antibody was assessed with ELISA. Briefly, clear polystyrene plates (BEAVER) were coated with 100 μl/well of a […] hGREM1 (ACRO), or human gremlin-2 (R&D), human COCO (R&D) and human DAN protein (R&D) in high pH coating buffer overnight at 4° C. Then the plates were washed once on an automatic plate washer using PBS+0.1% Tween 20 (Sigma). 100 μl of block solution consisting of PBS+1% BSA+1% normal goat serum+0.5% Tween 20 (Sigma) was added to each well and incubated at room temperature for 2 hours. Then 100 ul of antibodies in antibody dilution buffer containing PBS+1% BSA+1% normal goat serum+0.01% Tween 20 starting from 2 μg/ml and then 5 fold serial dilution were added to each well of the plate and incubated for 1 hours at room temperature. Afterward the plates were washed three times with 200 ul of PBS+0.1% Tween20 followed by adding 100 μl/well 1:10000 Goat anti mouse IgG-HRP (Abcam), and incubate for 1 hour at room temperature. They were then washed 3× with PBS+0.1% Tween20. Finally, 100 µl/well of TMB (Pierce) was added to each well and after 5 minutes add 50 ul of stop solution to each well. The plates were read on a Multiscan FC microplate reader (Thermo Scientific) at […].

HGREM1-His (ACRO) [6] = target: T1, HGREM1-His (ACRO); experiment: ELISA on coated hGREM1 (Example 5: ACRO; sheet title: DAN Family,R&D,0.5ug/ml), anti-mouse IgG-HRP
Experimental: as §2

Binder | IC50 (HGREM1-His (ACRO) [1]) [µg/mL] | IC50 (HGREM1-His (ACRO) [2]) [µg/mL] | IC50 (HGREM1-His (ACRO) [3]) [µg/mL] | EC50 (HGREM1-His (ACRO) [4]) [µg/mL] | IC50 (HGREM1-His (ACRO) [5]) [µg/mL] | binding result (human gremlin-2 (R&D)) | EC50 (read off the curve) (HGREM1-His (ACRO) [6]) [µg/mL]
36F5 (antibody, V domains shown, mouse hybridoma antibody; also called hybridoma 36F5) VH: QVQLQQSGAELARPGASVKLSCKASGYSFTSSGIGWVKQRSGQGLEWIGEIYPRSGNTYNNEKFKGKATLTADKSSSTVYMELRSLTSEDSAVYFCVREAYSHHYYAMDYWGQGTSVTVFS VL: DVLMTQTPLSLPVSLGGQASISCRSSQSLLHSNGNTYLEWYLQKPGQSPKLLIYKVSNRFSGVPDRLSGSGSGTDFTLKISRVEAEDLGVYYCFQGSHVPFTFGSGTKLEIN | 0.683 | 0.512 | 1.84 | 0.00587 | 0.604 |  | 
14E3 (antibody, V domains shown, mouse hybridoma antibody; also called hybridoma 14E3; anti-gremlin1 antibody 14E3) VH: QIQLVQSGPELKKPGETVKISCKTSGSTFTTYGMAWMKQAPGKGLTWMGWINTLSGEPTYADDFKGRFAFSLKTSANTAYLQINNLKNEDAATYFCAREPMDYWGQGTSVIVSS VL: not shown |  |  |  | 0.0136 |  | no binding (tested: 1 ug/ml) | ~0.01
